The results in this text go back to patent publication US20260374828 (published 2026).

Where no end group is shown, it is not given here. [ ]: non-standard residue; d: D form.

B1: Peptide 1-12 (peptide)
chain: Ac-DELEPLTGF[dR][dR]RR-NH2
SMILES: CC(=O)N[C@@H](CC(=O)O)C(=O)N[C@@H](CCC(=O)O)C(=O)N[C@@H](CC(C)C)C(=O)N[C@@H](CCC(=O)O)C(=O)N1CCC[C@H]1C(=O)N[C@@H](CC(C)C)C(=O)N[C@H](C(=O)NCC(=O)N[C@@H](Cc1ccccc1)C(=O)N[C@H](CCCNC(=N)N)C(=O)N[C@H](CCCNC(=N)N)C(=O)N[C@@H](CCCNC(=N)N)C(=O)N[C@@H](CCCNC(=N)N)C(N)=O)[C@@H](C)O
B2: Peptide 1-13 (peptide)
chain: Ac-DELEPLTGFRR[dR][dR]-NH2
SMILES: CC(=O)N[C@@H](CC(=O)O)C(=O)N[C@@H](CCC(=O)O)C(=O)N[C@@H](CC(C)C)C(=O)N[C@@H](CCC(=O)O)C(=O)N1CCC[C@H]1C(=O)N[C@@H](CC(C)C)C(=O)N[C@H](C(=O)NCC(=O)N[C@@H](Cc1ccccc1)C(=O)N[C@@H](CCCNC(=N)N)C(=O)N[C@@H](CCCNC(=N)N)C(=O)N[C@H](CCCNC(=N)N)C(=O)N[C@H](CCCNC(=N)N)C(N)=O)[C@@H](C)O

This assay deals with Keap1 Kelch domain (UniProt Q14145). In words: other TR-FRET.
Chain of Keap1 Kelch domain (Q14145 whole entry, the tested form may be a part): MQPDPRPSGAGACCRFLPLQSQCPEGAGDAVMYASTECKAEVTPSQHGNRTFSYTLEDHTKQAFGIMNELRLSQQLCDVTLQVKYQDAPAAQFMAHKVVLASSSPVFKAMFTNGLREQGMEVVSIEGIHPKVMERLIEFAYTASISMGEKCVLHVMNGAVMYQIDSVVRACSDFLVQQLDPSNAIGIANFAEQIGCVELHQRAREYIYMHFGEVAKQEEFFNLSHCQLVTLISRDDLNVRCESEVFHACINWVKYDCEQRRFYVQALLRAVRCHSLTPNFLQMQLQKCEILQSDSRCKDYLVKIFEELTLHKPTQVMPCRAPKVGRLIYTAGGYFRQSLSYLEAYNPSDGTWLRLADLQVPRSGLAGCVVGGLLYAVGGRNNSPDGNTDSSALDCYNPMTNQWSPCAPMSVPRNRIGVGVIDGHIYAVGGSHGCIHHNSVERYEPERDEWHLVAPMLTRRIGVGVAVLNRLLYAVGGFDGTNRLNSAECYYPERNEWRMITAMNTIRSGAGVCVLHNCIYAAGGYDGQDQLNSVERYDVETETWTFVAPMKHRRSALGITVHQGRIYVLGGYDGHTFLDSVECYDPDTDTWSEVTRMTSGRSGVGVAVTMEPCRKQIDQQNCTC
In the case of RRDELEPLTGFRR (also: polynorbornene brush polymer conjugate, multivalent) [PLP 1-3], half-maximal inhibition (IC50) was put at 0.12 nM.

As to DELEPLTGF[dR][dR]RR (also: polynorbornene brush polymer conjugate, multivalent) [PLP 1-12], the concentration for half-maximal inhibition (IC50) – broadly, the midpoint of a concentration-inhibition curve – came to 0.17 nM. As for B1, the IC50 is 13.3 nM.

B2 showed an IC50 of 8.8 nM.
